B1: Ena/VASP-like protein (Homo sapiens), Q9UI08 (parent)
chain: MSEQSICQARASVMVYDDTSKKWVPIKPGQQGFSRINIYHNTASNTFRVVGVKLQDQQVVINYSIVKGLKYNQATPTFHQWRDARQVYGLNFASKEEATTFSNAMLFALNIMNSQEGGPSSQRQVQNGPSPDEMDIQRRQVMEQHQQQRQESLERRTSATGPILPPGHPSSAASAPVSCSGPPPPPPPPVPPPPTGATPPPPPPLPAGGAQGSSHDESSMSGLAAAIAGAKLRRVQRPEDASGGSSPSGTSKSDANRASSGGGGGGLMEEMNKLLAKRRKAASQSDKPAEKKEDESQMEDPSTSPSPGTRAASQPPNSSEAGRKPWERSNSVEKPVSSILSRTPSVAKSPEAKSPLQSQPHSRMKPAGSVNDMALDAFDLDRMKQEILEEVVRELHKVKEEIIDAIRQELSGISTT
partner: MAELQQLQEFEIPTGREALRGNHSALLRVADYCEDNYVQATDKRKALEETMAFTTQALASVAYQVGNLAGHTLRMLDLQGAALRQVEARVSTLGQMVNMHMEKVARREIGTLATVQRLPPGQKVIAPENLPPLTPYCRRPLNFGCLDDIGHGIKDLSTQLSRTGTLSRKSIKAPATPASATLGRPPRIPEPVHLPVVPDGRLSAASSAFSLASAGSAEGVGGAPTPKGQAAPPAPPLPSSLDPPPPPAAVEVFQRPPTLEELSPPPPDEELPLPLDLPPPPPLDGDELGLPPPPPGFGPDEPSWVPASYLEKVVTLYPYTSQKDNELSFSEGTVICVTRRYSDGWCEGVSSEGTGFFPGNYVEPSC
B2: Serine hydroxymethyltransferase, mitochondrial (Homo sapiens), P34897 (parent)
chain: MLYFSLFWAARPLQRCGQLVRMAIRAQHSNAAQTQTGEANRGWTGQESLSDSDPEMWELLQREKDRQCRGLELIASENFCSRAALEALGSCLNNKYSEGYPGKRYYGGAEVVDEIELLCQRRALEAFDLDPAQWGVNVQPYSGSPANLAVYTALLQPHDRIMGLDLPDGGHLTHGYMSDVKRISATSIFFESMPYKLNPKTGLIDYNQLALTARLFRPRLIIAGTSAYARLIDYARMREVCDEVKAHLLADMAHISGLVAAKVIPSPFKHADIVTTTTHKTLRGARSGLIFYRKGVKAVDPKTGREIPYTFEDRINFAVFPSLQGGPHNHAIAAVAVALKQACTPMFREYSLQVLKNARAMADALLERGYSLVSGGTDNHLVLVDLRPKGLDGARAERVLELVSITANKNTCPGDRSAITPGGLRLGAPALTSRQFREDDFRRVVDFIDEGVNIGLEVKSKTAKLQDFKSFLLKDSETSQRLANLRQRVEQFARAFPMPGFDEH
partner: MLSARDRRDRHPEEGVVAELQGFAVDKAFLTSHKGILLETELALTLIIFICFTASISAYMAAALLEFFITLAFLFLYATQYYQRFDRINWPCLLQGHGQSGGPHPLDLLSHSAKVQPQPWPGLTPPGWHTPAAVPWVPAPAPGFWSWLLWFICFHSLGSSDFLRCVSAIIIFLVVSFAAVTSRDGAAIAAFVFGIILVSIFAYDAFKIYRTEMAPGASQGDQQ
B3: Ribosome-recycling factor, mitochondrial (Homo sapiens), Q96E11 (parent)
chain: MALGLKCFRMVHPTFRNYLAASIRPVSEVTLKTVHERQHGHRQYMAYSAVPVRHFATKKAKAKGKGQSQTRVNINAALVEDIINLEEVNEEMKSVIEALKDNFNKTLNIRTSPGSLDKIAVVTADGKLALNQISQISMKSPQLILVNMASFPECTAAAIKAIRESGMNLNPEVEGTLIRVPIPQVTREHREMLVKLAKQNTNKAKDSLRKVRTNSMNKLKKSKDTVSEDTIRLIEKQISQMADDTVAELDRHLAVKTKELLG
partner: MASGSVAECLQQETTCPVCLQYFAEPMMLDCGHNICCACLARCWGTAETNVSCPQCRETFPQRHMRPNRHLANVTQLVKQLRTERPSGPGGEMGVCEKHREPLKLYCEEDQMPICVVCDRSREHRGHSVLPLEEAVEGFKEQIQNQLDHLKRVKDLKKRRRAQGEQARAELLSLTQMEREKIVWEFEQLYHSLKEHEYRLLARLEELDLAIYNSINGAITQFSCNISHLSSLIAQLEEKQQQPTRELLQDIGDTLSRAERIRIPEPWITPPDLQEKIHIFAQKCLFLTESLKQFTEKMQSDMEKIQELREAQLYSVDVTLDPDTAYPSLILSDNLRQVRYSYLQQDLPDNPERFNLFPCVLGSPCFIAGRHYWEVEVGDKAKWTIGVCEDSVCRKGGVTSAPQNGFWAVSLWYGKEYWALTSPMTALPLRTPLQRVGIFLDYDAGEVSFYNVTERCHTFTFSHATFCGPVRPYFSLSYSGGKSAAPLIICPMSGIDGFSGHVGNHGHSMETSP
B4: CD151 antigen (Homo sapiens), P48509 (parent)
chain: MGEFNEKKTTCGTVCLKYLLFTYNCCFWLAGLAVMAVGIWTLALKSDYISLLASGTYLATAYILVVAGTVVMVTGVLGCCATFKERRNLLRLYFILLLIIFLLEIIAGILAYAYYQQLNTELKENLKDTMTKRYHQPGHEAVTSAVDQLQQEFHCCGSNNSQDWRDSEWIRSQEAGGRVVPDSCCKTVVALCGQRDHASNIYKVEGGCITKLETFIQEHLRVIGAVGIGIACVQVFGMIFTCCLYRSLKLEHY

Variants of: B1
Conditions: with abi3_human ABI3, Q9P2A4

| effect of a mutation on the interaction | Variant |
| --- | --- |
| with no effect | R10Q |

Variants of: B2
Conditions: with cklf5_human CMTM5, Q96DZ9

| effect of a mutation on the interaction | Variant |
| --- | --- |
| disrupting interaction strength | V112M |

Variants of: B3
Conditions: with tri27_human TRIM27, P14373

| effect of a mutation on the interaction | Variant |
| --- | --- |
| disrupting interaction strength | G175E |

Variants of: B4
Conditions: with astrc_human GRAMD1C

| effect of a mutation on the interaction | Variant |
| --- | --- |
| with no effect | S158T |

Variants of: B4
Conditions: with astrc_human GRAMD1C
Remark: another data set of the same source

| effect of a mutation on the interaction | Variant |
| --- | --- |
| with no effect | A67V |
